From patent US20230390406A1, “Star Polymer Drug Conjugates” (Vaccitech North America, Inc., priority 2020, published 2023)

Legend:
[1] = small molecule, not polymer-bound; cited from earlier work
[2] = test system: Compound AM, Ac-A′VnL-AMC
[3] = test system: Compound AN, Ac-A′SPVnL-AMC
[4] = test system: Compound AJ, Ac-A′SK(Ac)VB-AMC
[5] = test system: Compound AK, Ac-A′SK(Ac)SB-AMC
[6] = test system: Compound AO, Ac-A′SK(Ac)SnL-AMC
[7] = test system: Compound AP, Ac-A′SKSnL-AMC
[8] = test system: Compound AL, Ac-A′SKSB-AMC
[9] = test system: Compound AI, Ac-A′SPVB-AMC

Compound	pKa [1]	cleavage of the peptide-AMC bond (HPLC, UV 350 nm, up to 6 hrs) [2]	cleavage of the peptide-AMC bond (HPLC, UV 350 nm, up to 6 hrs) [3]	cleavage of the peptide-AMC bond (HPLC, UV 350 nm, up to 6 hrs) [4]	cleavage of the peptide-AMC bond (HPLC, UV 350 nm, up to 6 hrs) [5]	cleavage of the peptide-AMC bond (HPLC, UV 350 nm, up to 6 hrs) [6]	cleavage of the peptide-AMC bond (HPLC, UV 350 nm, up to 6 hrs) [7]	cleavage of the peptide-AMC bond (HPLC, UV 350 nm, up to 6 hrs) (Compound AH, Ac-A′VB-AMC)	cleavage of the peptide-AMC bond (HPLC, UV 350 nm, up to 6 hrs) [8]	cleavage of the peptide-AMC bond (HPLC, UV 350 nm, up to 6 hrs) [9]
CC(C)(CCN)C(=O)O [DMBA, 4-amino-2,2-dimethylbutanoic acid]	about 4.8									
cathepsin B (Sino Biological, protein human recombinant)		found to be metabolized quickly in the presence of cathepsin B as well as mouse plasma	found to be metabolized quickly in the presence of cathepsin B as well as mouse plasma	Compound AJ was relatively stable in both matrices	showed significant stability in mouse plasma, but were readily cleaved in the presence of human cathepsin	showed significant stability in mouse plasma, but were readily cleaved in the presence of human cathepsin	showed significant stability in mouse plasma, but were readily cleaved in the presence of human cathepsin	found to be metabolized quickly in the presence of cathepsin B as well as mouse plasma	showed significant stability in mouse plasma, but were readily cleaved in the presence of human cathepsin	found to be metabolized quickly in the presence of cathepsin B as well as mouse plasma
